The values below come from patent publication US7279161B2, “Factor IX/factor IXa activating antibodies and antibody derivatives” (Baxter Aktiengesellschaft, priority 1999, dated 2007).

Entries after “also recorded” stand apart in the source; their conditions may differ.

In one assay the test system is FIX/FIXa. The assay is described as follows: Western Blot and ELISA reactivity with FIX/FIXa. The format is binding. Here is the method: Factor IX and the two activated forms of FIX, FIXaα and FIXaβ (FIX/FIXa(α,β)) were diluted in TBS (25 mM Tris HCl, 150 mM NaCl, pH 7.5) to a final concentration of 2 μg/ml. Nunc Maxisorp ELISA plates were coated with 100 μl FIX/FIXa(α,β) solution according to standard procedures (4° C., overnight) and washed several times with TBST (TBS, 0.1% (v/v) Tween 20). 50 μl hybridoma supernatant was diluted 1:1 with 50 μl TBST/2% BSA and added to the coated ELISA plate. After an incubation period of 2 h at room temperature (RT), plates were washed 4 times with TBST and incubated (2 h, RT) with 100 μl/well of a 1:25000 dilution (in TBST/1% BSA) of an anti-mouse IgG (Fc-specific) peroxidase conjugated antibody (Sigma, #A-0168). Wells were washed 5 times with TBST and finally stained with 100 μl freshly prepared staining solution (10 ml 50 mM sodium citrate, pH 5 supplemented with 100 μl OPD (60 mg OPD/ml) and 10 μl 30% H2O2). The reaction was stopped by the addition of […] H2SO4 and the optical density recorded at 492 nm and 620 nm in a Labsystems iEMS Reader MF™ microtiter plate reader employing GENESIS™ software. […]
For orientation: Immunoblotting shows a protein as a band on a membrane.

In the next assay the target is T1, factor IXa (Bos taurus, UniProt P00741).
T1 construct: purchased Chromogenix COATEST VIII:C/4
The assay is described as follows: Chromogenic FVIII assay (COATEST VIII:C/4) with the kit's FIXa/FX. In kind it is biochemical, bovine. Here is the method: In order to assay the FVIII-like activity of anti-FIXa antibodies secreted by hybridoma cells, the commercially available test-kit COATEST VIII:C/4® (Chromogenix) was employed. The assay was done essentially as described by the manufacturer with the following modifications:
To allow high throughput screening, the assay was downscaled to microtiter plate format. Briefly, 25 μl aliquots of hybridoma supernatants were transferred to microtiter plate (Costar, #3598) wells and warmed to 37° C. Chromogenic substrate (S-2222), synthetic thrombin inhibitor (I-2581), factor (F) IXa and FX were reconstituted in sterile water and FIXa/FX was mixed with phospholipids according to the supplier's protocol. Per reaction, 50 μl of the phospholipid/FIXa/FX solution were combined with 25 μl CaCl2 (25 mM) and 50 μl of the substrate/inhibitor cocktail. To start the reaction, 125 μl of the premix were added to the hybridoma supernatant in the microtiter plates and incubated at 37° C. Absorbency at 405 nm and 490 nm of the samples was read at various times (30 min to 12 h) against a reagent blank (MLW, cell culture medium instead of hybridoma supernatant) in a Labsystems iEMS Reader MF™ microtiter plate reader. FVIII-like activity of the samples was calculated by comparing the absorbency of the samples against the absorbency of a diluted FVIII reference standard (IMMUNO AG #5T4AR00) using GENESIS™ software.
Several anti-FIX/FIXa antibody producing hybridoma clones were subcloned up to four times and the resulting monoclonal hybridoma cell line used to produce monoclonal antibody containing supernatant. IgG isotype antibodies derived from these supernatants were purified over affinity columns and dialyzed against TBS (see above). IgM antibodies were used as unpurified supernatant fractions. […] Absorbance at 405 nm and 490 nm of the samples was read at various times (5 min to 6 h) against a reagent blank (cell culture medium instead of hybridoma supernatant) in a Labsystems iEMS Reader MF™ microtiter plate reader using GENESIS™ software. […]

A further assay deals with FVIII deficient plasma. The assay is described as follows: aPTT based one stage clotting assay in FVIII deficient plasma. In kind it is biochemical, human. The settings on record: for procoagulant activity: one-stage clotting assay in the presence of FIXa; for clotting time: 50 ng FIXa. In outline: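 Test samples preincubated 4 min with FVIII-deficient plasma and aPTT reagent (DAPTTIN or Pathromtin SL), optionally with 50 ng activated FIX; clotting started with 25 mM CaCl2. Read-out is clotting time from start to clot formation, set against FVIII, buffer or scrambled-peptide controls.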

The test system of the next assay is FVIII inhibitor plasma. In words: aPTT based one stage clotting assay in FVIII inhibitor plasma. Conditions: inhibitor potency 400 BU/ml, 50 ng activated FIXa. The format is biochemical. Here is the method: […] […] […] After a 4 minute incubation, the reaction was started by the addition of 100 μl CaCl2 (25 mM). To ensure equal conditions, the experiments employing FVIII deficient plasma and FVIII inhibitor plasma were done side by side.
To assay for the procoagulant activity of peptide A1/3 in FVIII inhibitor plasma the following experiment was carried out. We performed a standard aPTT based one stage clotting assay, but instead of FVIII deficient plasma we employed FVIII inhibitor plasma.

T1 sequence (P00741 47-192 limits assumed): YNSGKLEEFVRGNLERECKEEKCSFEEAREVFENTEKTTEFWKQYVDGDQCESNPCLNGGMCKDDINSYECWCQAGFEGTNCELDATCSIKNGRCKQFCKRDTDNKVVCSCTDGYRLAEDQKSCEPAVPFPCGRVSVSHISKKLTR
T1 sequence (P00741 228-462 limits assumed): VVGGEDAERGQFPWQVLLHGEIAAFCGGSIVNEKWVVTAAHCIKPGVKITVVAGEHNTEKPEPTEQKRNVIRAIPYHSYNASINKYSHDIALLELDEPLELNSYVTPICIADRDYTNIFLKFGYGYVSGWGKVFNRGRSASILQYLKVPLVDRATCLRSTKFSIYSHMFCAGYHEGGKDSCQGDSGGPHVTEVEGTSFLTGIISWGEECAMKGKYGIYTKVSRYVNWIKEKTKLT

B1: #8860: irrelevant monoclonal antibody, negative control (protein)
chain 1: EVQLQQSGPELVKPGASVKISCKASGYAFSSSWMNWVKQRPGQGLEWIGRIYPGNGDTNYNGKFKGKATLTADKSSSTAYMQLSSLTSVDSAVYFCADGNVYYYAMDYWGQGTSVTVSS
chain 2: QIVLTQSPASLAVSLGQRATISCRASKSVSTSGYSYMHWYQQKPGQPPKLLIYLASNLESGVPARFSGSGSGTDFTLNIHPVEEEDAATYYCQHSRELPRTFGGGTKLEIKR
On to B1, for which the “reactivity with FIX/FIXa” value with FIX/FIXa is “does not react with FIX/FIXa”.

B2: 198/A1: anti-FIX/FIXa monoclonal IgG, ECACC No. 99090924; scFv SEQ. ID. NOs. 87 and 88 (protein)
scFv: EVQLQESGGGLVKPGGSLKLSCAASGFIFSSYTMSWVRQTPEKRLEWVATISSGGSSTYYPDSVKGRFTISRDNAKNTLYLQMSSLKSEDTAMYHCTREGGGYYVNWYFDVWGAGTTLTVSSGGGGSGGRASGGGGSDIELTQSPASLAVSLGQRATISCRASESVDSYGKSFMHWYQQKPGQPPKLLIYRASNLESGIPARFSGSGSRTDFTLTINPVEADDVATYYCQQSNEDPLTFGAGTRLEIKR
modifications: scFv derived from IgG; Description of Artificial Sequence:scFv derived from hybridima cell line 198/A1
notes: anti-FIX/FIXa monoclonal IgG, ECACC No. 99090924; ID; NOs; 87 and 88
B2: in the assay with factor IXa (bovine FIXa and FX only, A1/3 24 μM), the “chromogenic FVIII-like activity (FXa generation) without human FIXa” value is “does not react with bovine FIXa and FX”. The procoagulant activity entry with FVIII deficient plasma was “show procoagulant activity”.

B3: 193/AD3: anti-FIX/FIXa monoclonal antibody, IgG isotype; scFv SEQ. ID. NOs. 81 and 82 (protein)
scFv: EVKLVESGPELKKPGETVKISCKASGYIFTNYGMNWVKQAPGKGLKWMGWINTYTGEPTYADDFKGRFAFSLETSASTAYLQINNLKNEDTATYFCALYGNSPKGFAYWGQGTLVTVSAGGGGSGGRASGGGGSDIQMTQSPKFLLVSAGDRVTITCKASQSVSNDVAWYQQKPGQSPKLLMYYASNRYTGVPDRFTGSGYGTDFTFTISTVQAEDLAVYFCQQDYGSPPTFGGGTKLEIKR
modifications: scFv derived from IgG; Description of Artificial Sequence:scFv from hybridoma cell line 193/AD3
notes: anti-FIX/FIXa monoclonal antibody, IgG isotype; ID; NOs; 81 and 82
B3: in the assay with factor IXa (purified IgG (198/AC1/1 10 μg/ml) or unpurified IgM supernatant), the “time course of FVIII-like activity (chromogenic substrate cleavage, OD 405 nm)” value was “give rise to chromogenic substrate cleavage; also recorded: gave rise to chromogenic substrate cleavage”. Further, the “reduction of the clotting time” value with FVIII inhibitor plasma is “clear dose-dependent reduction of the clotting time”; in the assay with FVIII deficient plasma (various amounts of antibody, 50 ng activated FIX) it was “clear dose-dependent reduction of the clotting time; also recorded: reduction in the coagulation time”. Further, the clotting time in the assay on FVIII deficient plasma (0.23 μg AB) was 99.3 s; in the assay on FVIII deficient plasma (0.34 μg AB) it was 97.1 s; in the assay with FVIII deficient plasma (0.45 μg AB) it was 98.1 s; with FVIII deficient plasma (0.9 μg AB), 94.4 s; in the assay on FVIII deficient plasma (1.35 μg AB), 91.4 s; in the assay on FVIII deficient plasma (1.8 μg AB) it was 93.7 s. Moreover, the clotting time in the assay with FVIII deficient plasma (2.25 μg AB) stood at 93.1 s; with FVIII deficient plasma (4.5 μg AB), 95.6 s; in the assay with FVIII deficient plasma (9 μg AB), 101.6 s. Further, in the assay with FVIII deficient plasma, the procoagulant activity result is listed as “procoagulant”.
